Where a SMILES comes first, the peptide text is derived from it. Where no end group is shown, it is not given here. Side-chain parts run from the residue outwards. [ ]: non-standard residue; d: D form. The star is where a group is joined. DOTA = O=C(O)CN1CCN(CC(=O)O)CCN(CC(=O)*)CCN(CC(=O)O)CC1; hArg = N=C(N)NCCCC[C@H](N)C(=O)O; Dab = NCC[C@H](N)C(=O)O; Ahx = NCCCCCC(=O)O
Columns and labels:
VEGF-A165/NRP-1 complex = biological target: T1, VEGF-A165/NRP-1 complex (Homo sapiens, UniProt O14786); test: Competitive NRP-1-binding inhibition assay (competitive ELISA, bt-VEGF-A165 vs coated NRP-1); conditions: for IC50 / logIC50 ± SD: inhibition of VEGF-A165/NRP-1 complex formation, mean ± SD, n = 3; for binding affinity for NRP-1: summary of competitive ELISA results
T1 construct: purchased BioLegend (NRP-1); Abcam (bt-VEGF-A165)
T1 sequence (O14786 22-641 limits assumed): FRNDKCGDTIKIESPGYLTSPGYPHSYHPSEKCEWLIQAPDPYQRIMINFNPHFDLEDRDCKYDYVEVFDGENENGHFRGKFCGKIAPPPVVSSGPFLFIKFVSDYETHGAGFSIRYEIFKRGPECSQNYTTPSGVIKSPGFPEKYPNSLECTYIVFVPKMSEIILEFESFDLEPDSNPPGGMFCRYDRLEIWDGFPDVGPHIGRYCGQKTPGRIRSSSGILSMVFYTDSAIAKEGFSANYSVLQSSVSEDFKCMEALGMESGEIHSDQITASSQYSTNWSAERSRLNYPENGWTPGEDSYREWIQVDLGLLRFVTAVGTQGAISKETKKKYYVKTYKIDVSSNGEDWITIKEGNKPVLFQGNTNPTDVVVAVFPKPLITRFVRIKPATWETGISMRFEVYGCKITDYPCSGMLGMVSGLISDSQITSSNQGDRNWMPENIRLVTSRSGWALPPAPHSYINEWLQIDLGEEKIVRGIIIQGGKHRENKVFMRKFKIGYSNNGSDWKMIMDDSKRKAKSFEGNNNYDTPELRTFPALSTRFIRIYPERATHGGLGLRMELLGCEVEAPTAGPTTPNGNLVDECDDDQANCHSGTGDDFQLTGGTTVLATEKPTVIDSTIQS
Experimental: The study of biological activity (inhibition of VEGF-A165/NRP-1 binding) of Sc-1, Sc-1bis, Sc-2, Sc-3 and Ga-3 compounds was tested by competitive ELISA test. The method used was similar to the one previously described. Briefly, the first step was to coat the bottom surface of a 96-well plate using 100 µL (200 ng/well) of recombinant human NRP-1 and incubate overnight at 4 °C. Nonspecific binding was blocked with 0.5% BSA (bovine serum albumin) in PBS. Following this, 50 µL of the solution of tested compound in PBS, in the selected concentrations (100 [µM], 50 [µM], 25 [µM], 12.5 [µM] and […]), and 50 µL (400 ng/mL) of human (bt)-VEGF-A165 in PBS containing 4 µg/mL of heparin were added. After 2 h of incubation at room temperature, the plate was washed and treated with a streptavidin–horseradish peroxidase conjugate in PBS (1:100) for 45 min. After the final wash, the chemiluminescence was quantified immediately after addition of 100 μL chemiluminescent substrate. Wells incubated with (bt)-VEGF-A165 served only as positive control (P), while wells not coated with NRP-1 were used as negative control (NS). Percentages of inhibition were calculated according to the following formula. % inhibition=100% −(S−NS)·100%/P−NS where: S—measured signal, NS—negative control signal, P—positive control signal. Test IC50 [µM] values (mean ± SD of three independent experiments) were determined by nonlinear regression analysis (log(inhibitor) vs. normalized response—variable slope) generated in GraphPad Prism 9.0.0 program (Graph Pad, San Diego, CA, USA).

physchem = format: physicochemical; conditions: for logP: pH 7.4, logP ± SD; for logP ± SD: pH 7.4
Experimental: The lipophilicity value, defined as the decimal logarithm (logP) of the partition coefficient (P), was tested in the system of two immiscible (but saturated with each other) phases: 0.1 M PBS solution, pH 7.4, and n-octanol, in three independent experiments. Partition coefficient was determined as a ratio of radioactivity of the organic (n-octanol) and aqueous (PBS solution) phases and was shown as the mean ± SD. The lipophilicity test was carried out as follows: the tested radiocompound dissolved in 10–20 µL of PBS was incubated and intensively mixed in an equal amount of these two phases. After centrifugation, radioactivity of appropriate amounts of the separated organic (500 µL) and aqueous (100 µL) phases were measured on the Wizard gamma counter. Differences in the volume of phases taken for measurement resulted from the very low radioactivity of organic phases and were included in the calculations. Additionally, to confirm the stability of the studied radiocompounds during the experiment, the RP-HPLC analyses of the aqueous phase were performed after each lipophilicity test.

[1] = format: in vitro ADME, human
Experimental: (§1) Radioconjugate stability tests in 0.1 M PBS solution, 1 mM cysteine (Cys) solution, 1 mM histidine (His) solution and human serum (HS) were performed under rigorous conditions according to the procedure described in detail in our previous paper. In brief, isolated radioconjugates were dissolved in 50 µL PBS and appropriate volume of Cys, His and HS solution and then incubated at 37 °C. After the specified incubation time (depending on the half-life of a given radionuclide), which was up to 4–8 h for the ^44Sc-radiocompounds, 4 h for the ^68Ga-radiocompounds and about 6–14 days for the ^177Lu-radiocompounds, aliquots of solution were withdrawn from the mixture and the composition of the solution was analyzed on RP-HPLC in System 3 or 4 with gamma detection. The concentrations of Cys and His solutions were about 1000 times higher than that of the studied radiocompound. In the case of the radioconjugate stability study in HS, the concentration of the radiocompound was a maximum of 2–25 nmol/mL in 100% human serum. After incubation, the protein components were precipitated with a 2.5-fold volume excess of ethanol prior to RP-HPLC analysis, and then both the supernatant and precipitate radioactivity were measured with a Wizard gamma counter. The percentage of radioactivity remaining in the supernatant and bound by the precipitated serum protein components was calculated as the ratio of the radioactivity of the supernatant or the precipitate, respectively, to the sum of the radioactivity of the supernatant and the precipitate.

[2] = format: physicochemical; conditions: pH 7.4
Experimental: as §1

logIC50 ± SD (VEGF-A165/NRP-1 complex)	binding affinity for NRP-1 (VEGF-A165/NRP-1 complex)	Compound	stability in human serum [1]	stability in PBS buffer [2]	also measured
		CC(C)C[C@@H](NC(=O)[C@H]1CCCN1C(=O)[C@H]1CCCN1C(=O)[C@H](N)CCCNC(=N)N)C(=O)N[C@H](Cc1c[nH]c2ccccc12)C(=O)N[C@@H](C(=O)N[C@H](C)C(=O)N[C@H](CCCCNC(=O)CN1CCN(CC(=O)O)CCN(CC(=O)O)CCN(CC(=O)O)CC1)C(=O)O)[C@H](C)O [Ga-3, ^DR7A-^DLys(DOTA-Ga)] (H-[dR][dP][dP][dL][dW][dT][dA][dK](DOTA)-OH)			IC50 (VEGF-A165/NRP-1 complex): > 100 µM
−5.32 ± 0.12	high binding affinity	N=C(N)NCCCC[C@H](N)C(=O)NCCCC[C@H](N)C(=O)N[C@@H](CCN)C(=O)N1CCC[C@H]1C(=O)N[C@@H](CCCNC(=N)N)C(=O)O [K4R, Lys(hArg)-Dab-Pro-Arg] (H-K(hArg)[Dab]PR-OH)			
−4.65 ± 0.12	high binding affinity	CC(C)C[C@H](NC(=O)[C@H](Cc1c[nH]c2ccccc12)NC(=O)[C@@H](NC(=O)[C@H](C)NC(=O)CCCCCNC(=O)CN1CCN(CC(=O)O)CCN(CC(=O)O)CCN(CC(=O)O)CC1)[C@@H](C)O)C(=O)N1CCC[C@H]1C(=O)N1CCC[C@H]1C(=O)N[C@@H](CCCNC(=N)N)C(=O)O [Sc-1, Sc-DOTA-Ahx-A7R] ({DOTA-Ahx}-ATWLPPR-OH)			
−4.74 ± 0.01	high binding affinity	CC(C)C[C@H](NC(=O)[C@H](Cc1c[nH]c2ccccc12)NC(=O)[C@@H](NC(=O)[C@H](C)NC(=O)[C@@H](N)CCCCNC(=O)CN1CCN(CC(=O)O)CCN(CC(=O)O)CCN(CC(=O)O)CC1)[C@@H](C)O)C(=O)N1CCC[C@H]1C(=O)N1CCC[C@H]1C(=O)N[C@@H](CCCNC(=N)N)C(=O)O [Sc-1bis, Lys(DOTA-Sc)-A7R] (H-K(DOTA)ATWLPPR-OH)			
−4.73 ± 0.03	high binding affinity	N=C(N)NCCCC[C@H](N)C(=O)NCCCC[C@H](N)C(=O)N[C@@H](CCNC(=O)CCCCCNC(=O)CN1CCN(CC(=O)O)CCN(CC(=O)O)CCN(CC(=O)O)CC1)C(=O)N1CCC[C@H]1C(=O)N[C@@H](CCCNC(=N)N)C(=O)O [Sc-2, Lys(hArg)-Dab(Ahx-DOTA-Sc)-Pro-Arg] (H-K(hArg)[Dab]([Ahx-DOTA])PR-OH)			
	very low binding affinity	CC(C)C[C@@H](NC(=O)[C@H]1CCCN1C(=O)[C@H]1CCCN1C(=O)[C@H](N)CCCNC(=N)N)C(=O)N[C@H](Cc1c[nH]c2ccccc12)C(=O)N[C@@H](C(=O)N[C@H](C)C(=O)N[C@H](CCCCNC(=O)CN1CCN(CC(=O)O)CCN(CC(=O)O)CCN(CC(=O)O)CC1)C(=O)O)[C@H](C)O [Sc-3, ^DR7A-^DLys(DOTA-Sc)] (H-[dR][dP][dP][dL][dW][dT][dA][dK](DOTA)-OH)			
		CC(C)C[C@H](NC(=O)[C@H](Cc1c[nH]c2ccccc12)NC(=O)[C@@H](NC(=O)[C@H](C)NC(=O)CCCCCNC(=O)CN1CCN(CC(=O)O)CCN(CC(=O)O)CCN(CC(=O)O)CC1)[C@@H](C)O)C(=O)N1CCC[C@H]1C(=O)N1CCC[C@H]1C(=O)N[C@@H](CCCNC(=N)N)C(=O)O [^44Sc-1, [^44Sc]Sc-DOTA-Ahx-A7R, metal not drawn] ({DOTA-Ahx}-ATWLPPR-OH)	insufficient stability	complete stability	logP (physchem): -3.44 ± 0.02
		CC(C)C[C@H](NC(=O)[C@H](Cc1c[nH]c2ccccc12)NC(=O)[C@@H](NC(=O)[C@H](C)NC(=O)[C@@H](N)CCCCNC(=O)CN1CCN(CC(=O)O)CCN(CC(=O)O)CCN(CC(=O)O)CC1)[C@@H](C)O)C(=O)N1CCC[C@H]1C(=O)N1CCC[C@H]1C(=O)N[C@@H](CCCNC(=N)N)C(=O)O [^44Sc-1bis, [^44Sc]Lys(DOTA-Sc)-A7R, metal not drawn] (H-K(DOTA)ATWLPPR-OH)	insufficient stability	complete stability	logP ± SD (physchem): −3.56 ± 0.06
		N=C(N)NCCCC[C@H](N)C(=O)NCCCC[C@H](N)C(=O)N[C@@H](CCNC(=O)CCCCCNC(=O)CN1CCN(CC(=O)O)CCN(CC(=O)O)CCN(CC(=O)O)CC1)C(=O)N1CCC[C@H]1C(=O)N[C@@H](CCCNC(=N)N)C(=O)O [^44Sc-2, [^44Sc]Sc-DOTA-Ahx-K4R, metal not drawn] (H-K(hArg)[Dab]([Ahx-DOTA])PR-OH)	insufficient stability	complete stability	logP (physchem): -2.57 ± 0.02
		CC(C)C[C@@H](NC(=O)[C@H]1CCCN1C(=O)[C@H]1CCCN1C(=O)[C@H](N)CCCNC(=N)N)C(=O)N[C@H](Cc1c[nH]c2ccccc12)C(=O)N[C@@H](C(=O)N[C@H](C)C(=O)N[C@H](CCCCNC(=O)CN1CCN(CC(=O)O)CCN(CC(=O)O)CCN(CC(=O)O)CC1)C(=O)O)[C@H](C)O [^44Sc-3, [^44Sc]^DR7A-^DLys(DOTA-Sc), metal not drawn] (H-[dR][dP][dP][dL][dW][dT][dA][dK](DOTA)-OH)	insufficient stability	complete stability	logP ± SD (physchem): −3.61 ± 0.03
		CC(C)C[C@H](NC(=O)[C@H](Cc1c[nH]c2ccccc12)NC(=O)[C@@H](NC(=O)[C@H](C)NC(=O)[C@@H](N)CCCCNC(=O)CN1CCN(CC(=O)O)CCN(CC(=O)O)CCN(CC(=O)O)CC1)[C@@H](C)O)C(=O)N1CCC[C@H]1C(=O)N1CCC[C@H]1C(=O)N[C@@H](CCCNC(=N)N)C(=O)O [^68Ga-1bis, [^68Ga]Lys(DOTA-Ga)-A7R, metal not drawn] (H-K(DOTA)ATWLPPR-OH)	insufficient stability	complete stability	logP ± SD (physchem): −4.18 ± 0.07
	very low binding affinity	CC(C)C[C@@H](NC(=O)[C@H]1CCCN1C(=O)[C@H]1CCCN1C(=O)[C@H](N)CCCNC(=N)N)C(=O)N[C@H](Cc1c[nH]c2ccccc12)C(=O)N[C@@H](C(=O)N[C@H](C)C(=O)O)[C@H](C)O [^DR7A, DArg-DPro-DPro-DLeu-DTrp-DThr-DAla, reference compound] (H-[dR][dP][dP][dL][dW][dT][dA]-OH; C-terminus assumed)			IC50 (VEGF-A165/NRP-1 complex): > 100 µM
−4.74 ± 0.02	high binding affinity	ATWLPPR-OH [A7R, Ala-Thr-Trp-Leu-Pro-Pro-Arg, reference compound]			
